{"source": "patent US9199028B2", "about": "“Use of entrained neutrophils to treat metastatic and micrometastatic disease in at risk patients” (MEMORIAL SLOAN-KETTERING CANCER CENTER, priority 2010, dated 2015)", "molecules": {"B1": {"name": "rhG-CSF: recombinant methionyl human granulocyte colony-stimulating factor (Neupogen, Amgen) (protein, chains of the INN, looked up)", "chain": "MTPLGPASSLPQSFLLKCLEQVRKIQGDGAALQEKLCATYKLCHPEELVLLGHSLGIPWAPLSSCPSQALQLAGCLSQLHSGLFLYQGLLQALEGISPELGPTLDTLQLDVADFATTIWQQMEELGMAPALQPTQGAMPAFASAFQRRAGGVLVASHLQSFLEVSYRVLRHLAQP", "modifications": "N-terminal methionine"}}, "key": {"4T1 cells [1]": {"system": "4T1 cells", "assay": "In vitro killing assay: naïve mouse neutrophils co-cultured with luciferase labelled 4T1 cells in the presence of chemokines", "type": "cell-based", "details": "naïve mouse neutrophils co-cultured with 4T1 cells, chemokine 20 ng/ml, overnight", "from_the_text": "Antibodies used for immunohistochemistry—MMP9, F4/80 and CCR2 (all from AbCam), Myeloperoxidase (Dako), Ly-6G and Cd11b (both from BD), and Cleaved Caspase 3 (Cell signalling). Antibodies used for western blotting—Actin (Sigma), CCL2 (AbCam) and CCL5 (R&D) p-SMAD2 (cell signalling). Antibodies used for FACS analysis FITC-Ly-6G, FITC-Cd11b, FITC-F4/80, FITC-Cd34 and FITC-c-Kit (all from BD) and VEGFR1-AP (R&D). Neutrophil Depletion Neutrophil depletion was achieved using daily IP injections of 12.5 μg Rat anti-Gr-1 antibody (BD) or Rat anti-Ly-6G antibody (BD) starting on day 3 post tumour engraftment. Starting on day 14, neutrophil depleting antibodies were administered twice daily. Control mice were injected with […] Rat isotype control (BD). Neutrophil depletion was monitored by manual blood differentials and FACS analysis. Flow Cytometry Peripheral blood was collected into EDTA-coated tubes, washed and resuspended in FACS buffer solution (PBS, 2% heat-inactivated FCS, 5 mM EDTA, and 0.02% sodium azide). The samples were blocked with […] and then incubated with fluorophore-conjugated antibodies. Erythrocytes were then lysed with FACS lysing solution (BD Biosciences) and the cell suspensions were analyzed on a FACSCalibur (BD Biosciences). Colony Formation Assay Female nude mice were orthotopically injected with 5×10^6 puromicin resistant 4T1 cells. On days 7 and 14 post tumour engraftment the mice were sacrificed and perfused with PBS. The lungs and livers were removed, washed with PBS and dissociated with Collagenase A (Roche). The single cell suspension was then plated onto puromicin containing media and selected for 14 day. Colonies were stained with Methylene-Blue and counted manually. Mouse Neutrophil Purification Whole blood was collected by cardiac puncture using heparinized (Sigma) syringe. The blood was diluted with 5 volumes of PBS containing 0.5% BSA and subjected to a discontinuous Histopaque (Sigma) gradient (1.077 and 1.119). Neutrophils were collected from the 1.077-1.119 interface, lymphocytes and monocytes collected from the plasma-1.077 interface. RBCs were eliminated by hypotonic lysis. The cells were washed twice with PBS-BSA and re-suspended in OptiMEM (Invitrogen) 0.5% FBS in a final concentration of 2×10^6 cells/ml. Neutrophil purity and viability were determined visually and were consistently >98%. Human Neutrophil Purification As part of a Memorial Sloan-Kettering Cancer Center institutionally approved protocol, blood samples (˜10 cc) were collected from healthy volunteers or from patients who were already having blood drawn for pre-surgical testing. Patients were consented accordingly as part of the approved protocol. […] Patients had either mastectomies or lumpectomies planned and had blood drawn prior to definitive surgical removal of their primary tumor or chemotherapy. Blood samples were transferred to the lab for analysis no more than 1 hour post-blood draw. Heparinzed blood (20 U/ml final) was mixed with an equal volume of Dextran 500 (3% in saline) and incubated 30 minutes at room temperature. The leukocyte-rich supernatant was layered on top of histopaque 1077 (Sigma) and centrifuged. Neutrophils, collected in the pellet fraction, were resuspended in 10 ml 0.2% NaCl for 30 seconds to remove contaminating erythrocytes. Isotonicity was restored by the addition of 10 ml 1.6% NaCl. Neutrophils were than washed three times in Hanks's balanced salt solution and resuspended in RPMI+FCS2%. In vitro Killing Assay Luciferase labelled cells (5,000/well) were plated on a 96-well, flat bottom white polystyrene tissue culture plate in OptiMEM 0.5% FBS (mouse neutrophils) or RPMI 2% FBS (human neutrophils). 4 hours later, purified neutrophils (100,000/well for mouse neutrophils and 5000 for human neutrophils) were added to the plated tumour cells and co-cultured overnight. […]"}, "4T1 cells [2]": {"system": "4T1 cells", "assay": "In vivo stimulation of neutrophils with chemokines, purified neutrophils co-cultured with 4T1 cells", "type": "cell-based, mouse", "details": "healthy mice treated in vivo with G-CSF alone or G-CSF plus chemokine", "protocol": "A. To test which chemokines may participate in the stimulation of neutrophils, neutrophils purified from healthy mice were co-culture with luciferase labeled 4T1 cells in the presence (20 ng/ml of chemokine) or absence of certain chemokines for an overnight incubation. […] B. To test which chemokines are sufficient for in vivo stimulation of neutrophils healthy mice were treated with G-CSF (to boost neutrophil numbers) and either CCL2, CCL5 or CXCL1. Control mice were treated with G-CSF alone. Neutrophils were purified from these mice and co-cultured with Luciferase-labeled 4T1 cells. […] Conclusion—CCL2 and to a lesser degree CCL5 can stimulate tumor cell killing both in vitro and in vivo."}}, "note": "Entries after “also recorded” stand apart in the source; their conditions may differ."}
{"molecule": "B1", "values": [{"measurement": "neutrophil mediated killing of 4T1 cells (tumor cell viability by luciferase activity)", "setting": "4T1 cells [1]", "value": "does not induce neutrophil mediated cell killing; also recorded: does not induce a cytotoxic neutrophil response; also recorded: did not induce a cytotoxic neutrophil response in vitro"}, {"measurement": "neutrophil mediated killing of 4T1 cells (tumor cell viability by luciferase activity)", "setting": "4T1 cells [1]; listed as G-CSF", "value": "no significant effect on tumor-cell viability"}, {"measurement": "viability of 4T1 cells co-cultured with neutrophils purified from chemokine treated mice", "setting": "4T1 cells [2]", "value": "did not induce a reduction in cell viability"}]}
